According to US9260507B2, “Peptide promoting cell adhesion and migration” (Symatese, priority 2009, dated 2016):

Tests used:
[1] = test system: normal human keratinocytes; assay: NHK wound closure in a confluent keratinocyte layer (time-lapse videomicroscopy); type: cell-based; conditions: LG4/5 protein 10 μg/ml, peptide 20 μg/ml
Method: NHKs were seeded in 24-well plates and grown until confluence. The medium was removed and a wound was made in the cell layer using a pipette tip. After rinsing with PBS, the areas were incubated with KBM-2 culture medium at 37° C. in the absence or presence of LG4/5 protein (10 μg/ml) or the peptide KKLRIKSKEK (SEQ ID NO: 1) (20 μg/ml). The behaviour of cells around the wound was then immediately followed by time-lapse videomicroscopy with an image recorded every hour for 48 hours in a moist chamber containing 5% CO2. (A) Images recorded at the beginning of the experiment, at 24 h and 48 h show the total area of the wound covered by cells during the experiment and under each condition (the black lines represent the edges of the wound at the start of recording). Bar, […]. (B) The wounded areas (without cells) were measured at the start, at 24 h (grey bars) and 48 h (black bars) using the Adobe Photoshop CS3 Extended program (version 10.0) in the different conditions. The rate of closure of each wound was expressed as a percentage of the initial wound. […]
Videomicroscopy experiments were performed with a Zeiss Axiovert 100M microscope fitted with a CCD camera (1 image every 10 minutes or every hour). In the experiments of FIG. 11, we analysed the movements of 100 cells using Metaview software (Roper Scientific, Princeton Instruments, Evry, France).

HT1080 cells = assay: Inhibition of cell adhesion by competition (HT1080 cells on LG4/5 and LN332 substrates); type: cell-based, Human; conditions: competitor in solution: peptide 20 μg/ml, LG4/5 protein 10 μg/ml, anti-LG4/5 antibody 10 μg/ml applied to substrate
Method: The LG4/5 (white bars) and LN332 (grey bars) proteins (1 μg/well) were adsorbed in 96-well plates. (A) Effect of the polyclonal anti-LG4/5 antibody on cell adhesion to the LG4/5 and LN332 protein. After saturating the wells, a solution of anti-LG4/5 antibody (10 μg/ml) was applied for one hour before performing the adhesion test with HT1080 cells (6·10^4 cells/well). (B, C) Effect of the LG4/5 protein and the peptide KKLRIKSKEK (SEQ ID NO: 1) in solution on syndecan-1 dependent adhesion to the LG4/5 fragment. The HT1080 cells were detached from the dishes and put into the wells (6·10^4 cells/well) as they were or in the presence of the LG4/5 protein (10 μg/ml) or the peptide KKLRIKSKEK (SEQ ID NO: 1) (20 μg/ml) as indicated on the graph. (A, B, C) The plates were incubated at 37° C. for 1 hour. After washing, the adherent cells were fixed and cell adhesion was measured as described in the methodology section. Cell adhesion in the presence of antibodies or competitor proteins was shown as a percentage of the cell adhesion obtained on the same substrate without competitor.
96-well plates were coated with the amounts indicated of peptide KKLRIKSKEK (SEQ ID NO: 1) or laminin 332 by adsorption at +4° C. for 16 to 18 hours. As before, the wells were saturated with a solution of 1% PBS-BSA for one hour. […]

normal human fibroblasts = assay: Cell adhesion test (crystal violet colorimetric), normal human fibroblasts; type: cell-based; conditions: 5 μg peptide or 1 μg LG4/5 protein immobilised, FIG. 14B
Method: (A) Showing the binding of syndecan-1 to the peptide KKLRIKSKEK (SEQ ID NO: 1). A lysate of normal human fibroblasts and a lysate of normal human keratinocytes were prepared as described in the Materials and Methods section and 2 mg of each lysate were incubated with neutravidin beads not coated or coated with the biotinylated peptide KKLRIKSKEK (SEQ ID NO: 1). A positive control was performed with the keratinocyte lysate to compare the size and quantity of syndecan-1 in the 2 cell types. After washing, the material bound to the beads was digested with a mixture of heparitinase I and chondroitinase ABC to release the protein part of the syndecan-1 from the glycosaminoglycans. The samples were then analysed by SDS PAGE electrophoresis in an 8% acrylamide gel under non-reducing conditions and by immunoblotting with polyclonal anti-syndecan antibody H174. The position of molecular weight markers is shown on the left. (B, C) Cell adhesion of normal human fibroblasts to the peptide KKLRIKSKEK (SEQ ID NO: 1) and to the LG4/5 protein. In one case (B), 5 μg of peptide KKLRIKSKEK (SEQ ID NO: 1) and 1 μg of protein LG4/5 were immobilised on a 96-well plate and in the other (C), the peptide KKLRIKSKEK (SEQ ID NO: 1) was immobilised at the concentrations indicated in the abscissa. […] After washing, the adherent cells were fixed and cell adhesion was measured as described in the methodology section. […]

[2] = test system: normal human keratinocytes; assay: Cell viability test (XTT); conditions: 100 to 1 μg/ml, medium renewed every two days (repeated twice)
Method: NHKs were seeded in 96-well plates at 10^4 cells per well. After 24 hours, the culture media were removed and replaced with KBM-2 medium containing the concentrations of peptide [sequence] (SEQ ID NO: 1) (upper curve) or LG4/5 protein (lower curve) shown. After 48 h of contact at 37° C. the media were removed and this step was repeated twice. After 48 h of contact at 37° C. the media were replaced by XTT reagent. The plates were then placed in an incubator at 37° C. and the absorption was read after 6 hours. Controls with neither peptide nor protein were made on the same plate.
The effect of the peptide on the cell viability of the normal human keratinocytes was analysed using a colorimetric assay (XTT Cell Proliferation Kit, Roche Diagnostics, Meylan, France). A control with the LG4/5 protein was carried out in parallel. The chemical reaction of the test is based on the production of NADPH in living cells reducing yellow tetrazolium XTT salts to orange formazan salts. Absorption at 490 nm is measured using an ELISA plate reader. […] In this case, cell viability was calculated from the formula: % viability=(Abs. cells with peptide/Abs. control cells)×100.

B1: LG4/5 protein: purified recombinant LG4/5 domain of the alpha3 chain of pre-LN332 (laminin 332) (protein)
chain: DTPVASPRSVKVWQDACSPLPKTQANHGALQFGDIPTSHLLFKLPQELLKPRSQFAVDMQTTSSRGLVFHTGTKNSFMALYLSKGRLVFALGTDGKKLRIKSKEKCNDGKWHTVVFGHDGEKGRLVVDGLRAREGSLPGNSTISIRAPVYLGSPPSGKPKSLPTNSFVGCLKNFQLDSKPLYTPSSSFGVSSCLGGPLEKGIYFSEEGGHVVLAHSVLLGPEFKLVFSIRPRSLTGILIHIGSQPGKHLCVYLEAGKVTASMDSGAGGTSTSVTPKQSLCDGQWHSVAVTIKQHILHLELDTDSSYTAGQIPFPPASTQEPLHLGGAPANLTTLRIPVWKSFFGCLRNIHVNHIPVPVTEALEVQGPVSLNGCPDQ
Area of the wound covered by cells (wound closure) ([1]; 24 h): 65%
Area of the wound covered by cells (wound closure) ([1]; 48 h): 91%
Effect on HT1080 cell adhesion to the immobilised LG4/5 fragment (HT1080 cells; LG4/5 substrate 1 μg/well): blocked adhesion to the immobilised LG4/5 fragment
Effect on HT1080 cell adhesion to LN332 (HT1080 cells; LN332 substrate 1 μg/well): without affecting adhesion to LN332
Adhesion of human dermal fibroblasts to the immobilised substrate (normal human fibroblasts): adhere
Cytotoxic effect on epidermal keratinocytes (percentage of viable cells vs controls) [2]: neither peptide […] (SEQ ID NO: 1) nor protein LG4/5 has any long-term cytotoxic effect
